Assay [1] addresses T1, TLN (Bacillus thermoproteolyticus, UniProt P00800).
T1 sequence (P00800 233-548): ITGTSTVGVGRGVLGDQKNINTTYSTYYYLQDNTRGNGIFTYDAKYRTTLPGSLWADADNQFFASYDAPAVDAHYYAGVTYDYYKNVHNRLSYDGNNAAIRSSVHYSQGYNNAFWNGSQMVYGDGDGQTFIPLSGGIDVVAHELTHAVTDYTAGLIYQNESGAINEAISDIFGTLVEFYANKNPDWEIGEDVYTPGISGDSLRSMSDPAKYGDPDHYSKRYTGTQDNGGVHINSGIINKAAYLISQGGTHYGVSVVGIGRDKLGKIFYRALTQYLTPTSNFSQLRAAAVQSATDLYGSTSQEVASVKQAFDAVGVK
Particulars: 1% DMSO; cited from earlier work.

Another assay deals with T2, thermolysin (TLN) (Bacillus thermoproteolyticus, UniProt P00800).
T2 construct: purchased Calbiochem (San Diego, CA, USA)
The assay is described as follows: MALDI-TOF MS analysis of ES005 cleavage. In kind it is biochemical. Particulars: 50 µM ES005, 10 nM TLN, 5 minutes, 37°C. As to the method:
MALDI-TOF MS spectra were recorded for samples containing different enzyme and substrate concentrations at various time points using an Autoflex Speed instrument (Bruker Daltonik GmbH, Leipzig, Germany) equipped with a 355-nm nitrogen laser for desorption and ionization. The ionization matrix, HCCA, was dissolved to 10 mg/mL in a standard solvent (50% MeCN, 47.5% MQ-water, and 2.5% TFA) by vigorous vortexing. Prior to the MALDI run, a main buffer (0.1 M Hepes, pH 7.5, 10 mM CaCl2) was used to dilute TLN to stock concentrations of 1000, 100 and 50 nM, ES005–500 µM, and galardin to 10 µM. All stocks solutions were kept on ice. For the 0 min incubation, 1 µL TLN and 1 µL galardin were preincubated at 37°C in 8 µL of the main buffer for 10 min before adding 1 µL of ES005. For all other time points, 1 µL of ES005 was added to tubes containing 8 µL buffer and 1 µL of TLN at different concentrations, followed by incubation at 37°C. At each timepoint (0, 1, 3, 5, 10, 20, 30, 60, 120 min), 1 µL of galardin was added to stop enzyme activity. After the final incubation, 1 µL aliquots from each timepoint were mixed with an equal volume of HCCA and spotted onto a MALDI plate. […] The resulting mass spectra were analysed using flexAnalysis software (v3.3, Bruker).

The target of assay [2] is T3, PLN (Pseudomonas aeruginosa, UniProt P14756). The following applies: 1% DMSO, less certain due to substrate quenching above 10 µM; cited from earlier work.
Assay [3] deals with T1, TLN. Briefly: Enzymatic activity against ES001 and ES005. In kind it is biochemical. Further details: purchased Calbiochem (San Diego, CA, USA). The following applies: 10 µM substrate, DMSO omitted, n = 4. As to the method:
(§1) Determination of reaction velocities. The substrate ES001 was used for APMA activated MMP-9 (MMP-9(A)), Mag-Trypsin activated MMP-9 (MMP-9(MT)) and MMP-14, while the substrate ES005 was used for ALN, PLN and TLN. The reaction velocities/initial rates (v) were determined at 37°C, at an excitation wavelength of 320 nm and an emission wavelength of 405 nm with a slit width of 10 nm using either a Perkin Elmer LS 50 Luminescence spectrometer and the FL WinLab Software Package (Perkin Elmer) or a Clario Star micro plate reader (CLARIOstar® BMG LABTECH).
(§2) To compare the activity of these enzymes against ES001 and ES005 assays were conducted using the same assay condition for all enzymes. The differences from the testing of phosphinic compounds described in the Material and Methods section were that DMSO was omitted, and the concentration of both substrates was 10 µM. A Perkin Elmer LS50 Luminescence Spectrometer was used to measure the activity. Reactions were monitor for one minute, and initial reaction velocities were determined from the activity curves. For each enzyme, the reaction with the presumed optimal substrate was performed first at an arbitrary enzyme concentration, followed immediately by the reaction with the alternate substrate using the same enzyme concentration.

For assay [4], the target named is T4, ALN (Staphylococcus aureus, UniProt P81177). The assay is classed as biochemical. Further details: purchased BioCentrum Ltd (Kraków, Poland). As to the method: as §1, §2
Assay [5] addresses T3, PLN. In kind it is biochemical. Set-up: purchased Calbiochem (San Diego, CA, USA). The method, then:
as §1, §2

In another assay the target is T5, MMP-9(A) (Homo sapiens, UniProt P14780).
T5 construct: made in house; host or cells: Sf9 and High Five insect cells
Briefly: Enzymatic activity against ES001 and ES005. In kind it is biochemical. The following applies: 10 µM substrate, DMSO omitted, n = 4. As to the method: as §1, §2

A further assay deals with T6, MMP-14 (Homo sapiens, UniProt P50281).
T6 construct: human MT1-MMP/MMP-14 (catalytic domain); purchased Calbiochem (San Diego, CA, USA)
Briefly: Enzymatic activity against ES001 and ES005. The assay is classed as biochemical. Particulars: 10 µM substrate, DMSO omitted, n = 4. The method, then: as §1, §2

The next assay has as its target T7, MMP-9(MT) (Homo sapiens, UniProt P14780).
T7 construct: made in house; host or cells: Sf9 and High Five insect cells
Briefly: Enzymatic activity against ES001 and ES005. The assay is classed as biochemical. The following applies: 10 µM substrate, DMSO omitted, n = 4. The method, then:
as §1, §2

Assay [6] concerns the target T4, ALN. The following applies: 1% DMSO, less certain due to substrate quenching above 10 µM; cited from earlier work.
Where [7] appears, read: 10 µM substrate, DMSO omitted, n = 4.

The star is where a group is joined. Dnp = O=[N+]([O-])c1ccc(*)c([N+](=O)[O-])c1; Mca = COc1ccc2c(CC(=O)*)cc(=O)oc2c1

As usually defined, the Km is the substrate concentration at which the rate is half of its maximum.

T4 sequence (P81177 209-509): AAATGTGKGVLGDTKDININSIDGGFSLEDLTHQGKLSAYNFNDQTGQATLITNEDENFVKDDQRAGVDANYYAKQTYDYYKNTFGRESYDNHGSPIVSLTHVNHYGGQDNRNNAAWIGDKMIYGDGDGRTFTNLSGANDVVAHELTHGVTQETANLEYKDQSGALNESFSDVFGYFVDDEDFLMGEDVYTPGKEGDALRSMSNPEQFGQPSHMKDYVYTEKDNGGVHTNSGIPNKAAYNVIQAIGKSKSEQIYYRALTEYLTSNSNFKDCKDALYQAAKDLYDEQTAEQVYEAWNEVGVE
T3 sequence (P14756 198-498): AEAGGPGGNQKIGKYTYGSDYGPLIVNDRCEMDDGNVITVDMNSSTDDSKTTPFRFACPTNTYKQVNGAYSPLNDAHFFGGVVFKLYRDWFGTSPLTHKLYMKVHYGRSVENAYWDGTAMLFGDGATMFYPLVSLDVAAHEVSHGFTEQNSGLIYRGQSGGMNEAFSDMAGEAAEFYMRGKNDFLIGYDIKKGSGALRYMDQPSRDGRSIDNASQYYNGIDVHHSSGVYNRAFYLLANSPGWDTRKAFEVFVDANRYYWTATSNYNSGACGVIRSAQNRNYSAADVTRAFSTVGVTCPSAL
T5 sequence (P14780 107-707 limits assumed): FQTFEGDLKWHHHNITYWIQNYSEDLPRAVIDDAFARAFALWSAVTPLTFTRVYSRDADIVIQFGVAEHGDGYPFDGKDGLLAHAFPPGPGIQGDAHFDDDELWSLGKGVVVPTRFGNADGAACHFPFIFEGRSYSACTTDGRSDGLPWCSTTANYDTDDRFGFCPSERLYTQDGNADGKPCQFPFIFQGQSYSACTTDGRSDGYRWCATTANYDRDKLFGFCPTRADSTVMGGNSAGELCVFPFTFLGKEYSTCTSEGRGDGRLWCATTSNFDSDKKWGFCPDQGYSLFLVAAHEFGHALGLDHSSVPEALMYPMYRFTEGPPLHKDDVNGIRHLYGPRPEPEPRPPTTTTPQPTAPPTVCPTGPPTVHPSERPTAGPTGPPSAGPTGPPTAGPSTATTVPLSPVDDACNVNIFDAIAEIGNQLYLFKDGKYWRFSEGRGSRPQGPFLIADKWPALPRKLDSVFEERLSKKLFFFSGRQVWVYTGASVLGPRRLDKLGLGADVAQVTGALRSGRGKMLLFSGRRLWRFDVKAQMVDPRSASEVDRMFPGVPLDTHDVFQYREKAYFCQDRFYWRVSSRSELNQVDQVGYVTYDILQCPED
T7 sequence (P14780 107-707 limits assumed): as above

Regarding “Mca-Arg-Pro-Pro-Gly-Phe-Ser-Ala-Phe-Lys(Dnp)-OH (Mca-RPPGFSAFK(Dnp)-OH; SMILES COc1ccc2c(CC(=O)N[C@@H](CCCNC(=N)N)C(=O)N3CCC[C@H]3C(=O)N3CCC[C@H]3C(=O)NCC(=O)N[C@@H](Cc3ccccc3)C(=O)N[C@@H](CO)C(=O)N[C@@H](C)C(=O)N[C@@H](Cc3ccccc3)C(=O)N[C@@H](CCCCNc3ccc([N+](=O)[O-])cc3[N+](=O)[O-])C(=O)O)cc(=O)oc2c1) [ES005]”, the Km in the assay with TLN [1] is 6 ± 1 µM; with PLN [2], 24 ± 8 µM; with ALN [6] it was 76 ± 7 µM. For the same substance, the “cleavage sites (MALDI-TOF MS)” value in the assay with thermolysin (TLN) was “cleaved at three sites: Gly-Phe (m/z 642), Ser-Ala (m/z 876), and Ala-Phe (m/z 947)”. Moreover, the Enzymatic activity is on record as 326 ± 36 ΔF/min with TLN [3]; 354 ± 61 ΔF/min with ALN [4] (setting [7]); 138 ± 4 ΔF/min in the assay with PLN [5] (setting [7]); 5.1 ± 0.2 ΔF/min in the assay with MMP-9(A); 8 ± 2 ΔF/min with MMP-14; 18 ± 8 ΔF/min in the assay with MMP-9(MT). For the same substance, the “higher activity for ES005 than ES001” value in the assay with ALN [4] was about 5 fold; with PLN [5], “approximately 15 fold”.

The values are drawn from paper PMC12316308, “Interactions of substrates and phosphinyl containing inhibitors with bacterial and human zinc proteases” (PLOS One, 2025).
